Source: patent US20210179689A1 (SHATTUCK LABS, published 2021)

What was measured:
[1] = biological target: T1, human CD40 (human, UniProt P25942 21-193); assay: Octet biolayer interferometry; Loading Sample ID hCD40-his; kdis(1/s); Full R^2 0.3080
T1 construct: also called hCD40

[2] = biological target: T1, human CD40; assay: Octet biolayer interferometry; Loading Sample ID hCD40-his; Full R^2 0.9810
[3] = biological target: recombinant mouse CD40-Fc protein (mouse) (UniProt P27512); assay: ELISA: coat mCD40-Fc, detection anti-mCD40L and an HRP conjugate
[4] = biological target: T2, murine CD40 (murine, UniProt P27512 20-193, limits assumed); assay: Octet biolayer interferometry; Loading Sample ID mCD40-his; kdis(1/s); Full R^2 0.7890
T2 construct: also called mCD40
T2 sequence (looked up): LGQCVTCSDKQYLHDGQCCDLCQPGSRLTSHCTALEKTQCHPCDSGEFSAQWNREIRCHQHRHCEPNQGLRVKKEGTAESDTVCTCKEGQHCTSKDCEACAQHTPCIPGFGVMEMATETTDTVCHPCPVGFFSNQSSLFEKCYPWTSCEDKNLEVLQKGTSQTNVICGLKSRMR

[5] = biological target: murine galectin-9 (murine) (UniProt O08573); assay: Octet biolayer interferometry; Loading Sample ID mGal9; kdis(1/s); Full R^2 0.9866
Chain of murine galectin-9 (murine) (O08573 other isoform, or with tags, fused parts or gaps limits assumed): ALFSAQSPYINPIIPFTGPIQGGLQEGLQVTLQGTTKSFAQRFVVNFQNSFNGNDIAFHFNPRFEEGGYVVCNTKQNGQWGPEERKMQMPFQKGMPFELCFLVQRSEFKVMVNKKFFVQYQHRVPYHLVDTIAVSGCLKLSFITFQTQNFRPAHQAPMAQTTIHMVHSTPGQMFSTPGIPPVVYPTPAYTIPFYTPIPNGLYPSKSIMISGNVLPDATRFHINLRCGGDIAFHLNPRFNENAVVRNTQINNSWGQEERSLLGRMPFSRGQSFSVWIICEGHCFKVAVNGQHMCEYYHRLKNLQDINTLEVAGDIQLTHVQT

[6] = biological target: T1, human CD40; assay: Octet biolayer interferometry; Loading Sample ID hCD40-his; Full R^2 0.3080
[7] = biological target: T2, murine CD40; assay: Octet biolayer interferometry; Loading Sample ID mCD40-his; kdis(1/s); Full R^2 0.9955
[8] = biological target: T1, human CD40; assay: Octet biolayer interferometry; Loading Sample ID hCD40-his; Full R^2 0.9393
[9] = biological target: T1, human CD40; assay: Octet biolayer interferometry; Loading Sample ID hCD40-his; kdis(1/s); Full R^2 0.9393
[10] = biological target: T2, murine CD40; assay: Octet biolayer interferometry; Loading Sample ID mCD40-his; Full R^2 0.7890
[11] = biological target: mIgG Fc gamma; assay: sandwich ELISA: coat mIgG Fc gamma, detection goat anti-mouse Fc (H+L) HRP
[12] = biological target: murine galectin-9 (murine) (UniProt O08573); assay: Octet biolayer interferometry; Loading Sample ID mGal9; Full R^2 0.9973
[13] = biological target: human galectin-9 (human) (UniProt O00182); assay: Octet biolayer interferometry; Loading Sample ID hGal9; Full R^2 0.9934
Chain of human galectin-9 (human) (O00182 other isoform, or with tags, fused parts or gaps limits assumed): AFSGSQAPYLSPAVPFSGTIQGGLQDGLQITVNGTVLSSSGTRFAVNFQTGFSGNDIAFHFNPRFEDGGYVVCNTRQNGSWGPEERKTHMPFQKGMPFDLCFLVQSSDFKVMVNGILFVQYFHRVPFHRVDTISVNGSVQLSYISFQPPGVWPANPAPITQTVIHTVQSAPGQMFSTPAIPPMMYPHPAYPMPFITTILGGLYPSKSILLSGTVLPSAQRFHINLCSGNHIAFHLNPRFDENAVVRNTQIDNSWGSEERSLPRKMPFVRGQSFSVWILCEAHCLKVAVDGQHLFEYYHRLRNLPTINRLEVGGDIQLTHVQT

[14] = biological target: murine galectin-9 (murine) (UniProt O08573); assay: Octet biolayer interferometry; Loading Sample ID mGal9; kdis(1/s); Full R^2 0.9973
[15] = biological target: T1, human CD40; assay: Octet biolayer interferometry; Loading Sample ID hCD40-his; kdis(1/s); Full R^2 0.9810
[16] = biological target: T2, murine CD40; assay: Octet biolayer interferometry; Loading Sample ID mCD40-his; Full R^2 0.9955
[17] = biological target: human galectin-9 (human) (UniProt O00182); assay: Octet biolayer interferometry; Loading Sample ID hGal9; kdis(1/s); Full R^2 0.9934
[18] = biological target: murine galectin-9 (murine) (UniProt O08573); assay: Octet biolayer interferometry; Loading Sample ID mGal9; Full R^2 0.9866
[19] = biological target: T1, human CD40; assay: Octet biolayer interferometry; Loading Sample ID hCD40-his; Full R^2 0.9682
[20] = biological target: T2, murine CD40; assay: Octet biolayer interferometry; Loading Sample ID mCD40-his; Full R^2 0.7077
[21] = biological target: T2, murine CD40; assay: Octet biolayer interferometry; Loading Sample ID mCD40-his; kdis(1/s); Full R^2 0.7077
[22] = biological target: T1, human CD40; assay: Octet biolayer interferometry; Loading Sample ID hCD40-his; kdis(1/s); Full R^2 0.9682
[23] = biological target: mIgG Fc gamma; assay: sandwich ELISA: coat mIgG Fc gamma, detection goat anti-mouse Fc (H+L) HRP; standard: mouse whole IgG
[24] = biological target: T2, murine CD40; assay: Octet biolayer interferometry; Loading Sample ID mCD40-his; Full R^2 0.9077
[25] = biological target: T1, human CD40; assay: Octet biolayer interferometry; Loading Sample ID hCD40-his; Full R^2 0.5111
[26] = biological target: T1, human CD40; assay: Octet biolayer interferometry; Loading Sample ID hCD40-his; kdis(1/s); Full R^2 0.5111
[27] = biological target: T2, murine CD40; assay: Octet biolayer interferometry; Loading Sample ID mCD40-his; KD and kdis cells blank; Full R^2 0.6015
[28] = biological target: T2, murine CD40; assay: Octet biolayer interferometry; Loading Sample ID mCD40-his; kdis(1/s); Full R^2 0.9077

T1 sequence (P25942 21-193 limits assumed): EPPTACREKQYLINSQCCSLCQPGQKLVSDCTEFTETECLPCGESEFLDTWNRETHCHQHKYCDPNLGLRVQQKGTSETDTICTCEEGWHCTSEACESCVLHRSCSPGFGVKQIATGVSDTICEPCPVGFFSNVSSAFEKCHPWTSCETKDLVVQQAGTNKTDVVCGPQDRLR

Molecule: mTIM-3-Fc-CD40L chimeric protein (from UniProt Q8VIM0 20-193; P27548 47-260) (Fc fusion)
- koff [1]: 0.00103 s⁻¹
- Kd [2]: 3 nM
- kon [2]: 30600 M⁻¹ s⁻¹
- EC50 (read off the curve) [3]: 10 nM
- koff [4]: 0.00286 s⁻¹
- koff [5]: 0.000803 s⁻¹
- Kd [6]: 9.37 nM
- koff [7]: 0.000295 s⁻¹
- Kd [8]: 9.46 nM
- kon [8]: 59400 M⁻¹ s⁻¹
- koff [9]: 0.000733 s⁻¹
- Kd [10]: 29.9 nM
- kon [10]: 79200 M⁻¹ s⁻¹
- EC50 (read off the curve) [11]: 4 nM
- Kd [12]: 16.7 nM
- kon [12]: 58500 M⁻¹ s⁻¹
- Kd [13]: 69 nM
- koff [14]: 0.00098 s⁻¹
- koff [15]: 0.000103 s⁻¹
- Kd [16]: 8.92 nM
- kon [16]: 33700 M⁻¹ s⁻¹
- koff [17]: 0.00108 s⁻¹
- Kd [18]: 7.07 nM
- kon [18]: 114000 M⁻¹ s⁻¹

Molecule: hCD40L-Fc (Fc fusion)
- Kd [19]: 6.18 nM
- kon [19]: 120000 M⁻¹ s⁻¹
- Kd [20]: 10.6 nM
- kon [20]: 229000 M⁻¹ s⁻¹
- koff [21]: 0.00241 s⁻¹
- koff [22]: 0.000734 s⁻¹

Molecule: mouse IgG (antibody)
- EC50 (read off the curve) [23]: 2 nM

B1: mCD40L-Fc fusion protein (Fc fusion, murine, UniProt P27548 112-260, looked up)
chain: MQRGDEDPQIAAHVVSEANSNAASVLQWAKKGYYTMKSNLVMLENGKQLTVKREGLYYVYTQVTFCSNREPSSQRPFIVGLWLKPSSGSERILLKAANTHSSSQLCEQQSVHLGGVFELQAGASVFVNVTEASQVIHRVGFSSFGLLKL
notes: also called recombinant mCD40L-Fc protein; not shown: Fc part
- Kd [24]: 14.1 nM
- kon [24]: 81500 M⁻¹ s⁻¹
- Kd [25]: 4.8 nM
- kon [25]: 220000 M⁻¹ s⁻¹
- koff [26]: 0.00115 s⁻¹
- kon [27]: 118000 M⁻¹ s⁻¹
- koff [28]: 0.00114 s⁻¹
